For assay [1], the target named is Tumor necrosis factor alpha (UniProt P01375).
Assay [2] has the same target. This is another data set of the same source.

Sequence of UniProt P01375 (P01375 whole entry): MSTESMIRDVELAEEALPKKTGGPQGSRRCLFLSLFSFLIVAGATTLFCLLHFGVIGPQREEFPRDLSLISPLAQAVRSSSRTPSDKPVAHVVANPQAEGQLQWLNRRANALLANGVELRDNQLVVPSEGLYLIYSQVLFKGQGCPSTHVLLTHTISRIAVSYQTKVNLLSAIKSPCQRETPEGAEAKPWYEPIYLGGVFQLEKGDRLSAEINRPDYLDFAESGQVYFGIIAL

Take “Etanercept biosimilar GP2015 (Erelzi) (Fc fusion)”: the potency (TNFα inhibition NFκB-luciferase reporter gene assay in HEK293 cells); main peak of large scale HIC separation of GP2015 in assay [1] was 100%. In assay [2], the % Potency (redox: after serum-like redox conditions), NFκB-luciferase reporter gene assay; GP2015 DP (30986553), 1.5% C78-C88 came out at 103%; the % Potency (redox: after serum-like redox conditions), NFκB-luciferase reporter gene assay; GP2015 DP (30986557), 1.3% C78-C88 came to 101%; the % Potency (redox: after serum-like redox conditions), NFκB-luciferase reporter gene assay; GP2015 DP (31161503), 1.7% C78-C88 came out at 98%; the % Potency (redox: after serum-like redox conditions), NFκB-luciferase reporter gene assay; GP2015 DS (B280815), 1.2% C78-C88 was 103%. In assay [2], this substance returned a % Potency (redox: after serum-like redox conditions), NFκB-luciferase reporter gene assay; GP2015 process intermediate (CAP.E), 1.6% C78-C88 of 98%; a % Potency (untreated), relative to reference standard, NFκB-luciferase reporter gene assay; GP2015 DP (30986553), 1.2% C78-C88 of 98%; a % Potency (untreated), relative to reference standard, NFκB-luciferase reporter gene assay; GP2015 DP (30986557), 1.8% C78-C88 of 97%; a % Potency (untreated), relative to reference standard, NFκB-luciferase reporter gene assay; GP2015 DP (31161503), 1.2% C78-C88 of 100%. For the same substance, in assay [2], the % Potency (untreated), relative to reference standard, NFκB-luciferase reporter gene assay; GP2015 DS (B280815), 1.0% C78-C88 was found to be 99% and the % Potency (untreated), relative to reference standard, NFκB-luciferase reporter gene assay; GP2015 process intermediate (CAP.E), 3.4% C78-C88 was found to be 76%.

Take “Etanercept reference product Enbrel (Fc fusion)”: in assay [2], the % Potency (redox: after serum-like redox conditions), NFκB-luciferase reporter gene assay; Enbrel (1034018), 1.8% C78-C88 stood at 96%; the % Potency (redox: after serum-like redox conditions), NFκB-luciferase reporter gene assay; Enbrel (1034842), 1.8% C78-C88 is 95%; the % Potency (redox: after serum-like redox conditions), NFκB-luciferase reporter gene assay; Enbrel (1040542), 1.7% C78-C88 is 107%; the % Potency (redox: after serum-like redox conditions), NFκB-luciferase reporter gene assay; Enbrel (1062728), 1.8% C78-C88 was 98%. In assay [2], this substance registered a % Potency (redox: after serum-like redox conditions), NFκB-luciferase reporter gene assay; Enbrel (J13793), 1.6% C78-C88 of 100%; a % Potency (untreated), relative to reference standard, NFκB-luciferase reporter gene assay; Enbrel (1034018), 2.8% C78-C88 of 81%; a % Potency (untreated), relative to reference standard, NFκB-luciferase reporter gene assay; Enbrel (1034842), 2.5% C78-C88 of 85%; a % Potency (untreated), relative to reference standard, NFκB-luciferase reporter gene assay; Enbrel (1040542), 2.6% C78-C88 of 89%. In assay [2], the % Potency (untreated), relative to reference standard, NFκB-luciferase reporter gene assay; Enbrel (1062728), 2.5% C78-C88 came out at 85% and the % Potency (untreated), relative to reference standard, NFκB-luciferase reporter gene assay; Enbrel (J13793), 2.3% C78-C88 amounted to 92%.

In assay [2], “GP2015 late eluting HIC fraction (etanercept enriched in incorrectly disulfide-bridged variants) (Fc fusion)” had a % Potency (redox: after serum-like redox conditions that reshuffle the incorrect bridges), NFκB-luciferase reporter gene assay; GP2015 late eluting HIC fraction, 2.0% C78-C88 of 93% and a % Potency (untreated), relative to reference standard, NFκB-luciferase reporter gene assay; GP2015 late eluting HIC fraction, 5.5% C78-C88 of 58%.

(Values after article PMC5479810.)
